± gives the uncertainty stated by the source.
Assay: self-splicing fitness, log relative to wild type (ln ratio); higher = more splicing; Tetrahymena group I intron in knt gene, E. coli kanamycin selection, DiMSum; sequences stand for … in CUCUCU…GGAGGGAAAAGUUAUCAGGCAUGCACCUGGUAGCUAGUCUUUAAACCAAUAGAUUGCAUCGGUUUAAAAGGCAAGACCGUCAAAUUGCGGGAAAGGGGUCAACAGCCGUUCAGUACCAAGUCUCAGGGGAAACUUUGAGAUGGCCUUGCAAAGGGUAUGGUAAUAAGCUGACGGACAUGGUCCUAACCACGCAGCCAAGUCCUAAGUCAACAGAUCUUCUGUUGAUAUGGAUGCAGUUCACAGACUAAAUGUCGGUCGGGGAAGAUGUAUUCUUCUCAUAAGAUAUAGUCGGACCUCUCCUUAAUGGGAGCUAGCGGAUGAAGUGAUGCAACACUGGAGCCGCUGGGAACUAAUUUGUAUGCGAAAGUAUAUUGAUUAGUUUUGGAGUACUCGUGGUCG
Method in brief: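 The eight P1ex-region nucleotides of an intron in the knt kanamycin-resistance gene on pET-22b(+) were all randomised and the library put into E. coli BL21(DE3). Six replicate transformations were grown overnight at 37°C or 30°C on LB agar with or without 25 μg/mL kanamycin, together with 100 μg/mL carbenicillin, 50 μM IPTG and 0.2% rhamnose. Colonies were pooled and amplicon-sequenced on an Illumina HiSeq 2500. Fitness from DiMSum is the error-weighted combination of wild-type-normalised replicate fold changes, kanamycin over none.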

| Sequence | self-splicing fitness (ln) (30 °C) | self-splicing fitness (ln) (37 °C) |
| --- | --- | --- |
| UCGGAGCAAUAUUACGGGGG | -2.73 ± 0.22 | -2.32 ± 0.3 |
| UCGGAGCAAUAUUACGGGUA | – | -1.76 ± 0.45 |
| UCGGAGCAAUAUUACGGUCC | -2.33 ± 0.4 | -1.73 ± 0.49 |
| UCGGAGCAAUAUUACGUAAC | -3.51 ± 0.48 | – |
| UCGGAGCAAUAUUACGUAUU | -4.15 ± 0.18 | -2.34 ± 0.15 |
| UCGGAGCAAUAUUACGUUAU | -3.36 ± 0.38 | -2.11 ± 0.38 |
| UCGUAGCAAUAUUACGACCU | -2.89 ± 0.22 | -0.916 ± 0.15 |
| UCGUAGCAAUAUUACGAUGU | -3.41 ± 0.24 | -2.24 ± 0.2 |
| UCGUAGCAAUAUUACGCACU | -2.67 ± 0.11 | -2.16 ± 0.11 |
| UCGUAGCAAUAUUACGCCGG | -0.692 ± 0.13 | -2.41 ± 0.28 |
| UCGUAGCAAUAUUACGCGAA | -2.68 ± 0.23 | -0.932 ± 0.19 |
| UCGUAGCAAUAUUACGCGGU | -2.32 ± 0.15 | -1.6 ± 0.18 |
| UCGUAGCAAUAUUACGCGUA | -1.16 ± 0.14 | -0.895 ± 0.11 |
| UCGUAGCAAUAUUACGCGUC | – | -2.59 ± 0.33 |
| UCGUAGCAAUAUUACGCUAA | – | -1.48 ± 0.29 |
| UCGUAGCAAUAUUACGCUGG | -3.09 ± 0.15 | -1.88 ± 0.15 |
| UCGUAGCAAUAUUACGGAAU | – | -1.55 ± 0.27 |
| UCGUAGCAAUAUUACGGAGU | -2.81 ± 0.24 | – |
| UCGUAGCAAUAUUACGGCCG | -1.51 ± 0.36 | -0.102 ± 0.27 |
| UCGUAGCAAUAUUACGGGCU | – | -2.41 ± 0.49 |
| UCGUAGCAAUAUUACGGUUC | -3.12 ± 0.3 | -2.07 ± 0.27 |
| UCGUAGCAAUAUUACGUAGA | -0.639 ± 0.14 | 0.461 ± 0.14 |
| UCUAAGCAAUAUUACGACCA | -1.73 ± 0.24 | -0.242 ± 0.19 |
| UCUAAGCAAUAUUACGACGA | -0.414 ± 0.2 | 0.116 ± 0.17 |
| UCUAAGCAAUAUUACGAUGG | -0.0699 ± 0.087 | 0.158 ± 0.11 |
| UCUAAGCAAUAUUACGAUUG | -3.4 ± 0.18 | -2.26 ± 0.17 |

| Sequence | self-splicing fitness (ln) (30 °C) | self-splicing fitness (ln) (37 °C) |
| --- | --- | --- |
| UCUAAGCAAUAUUACGCAAA | -3.34 ± 0.21 | -2.97 ± 0.2 |
| UCUAAGCAAUAUUACGCCAC | -2.44 ± 0.36 | -3.11 ± 0.35 |
| UCUAAGCAAUAUUACGCGAG | -3.69 ± 0.25 | -1.6 ± 0.17 |
| UCUAAGCAAUAUUACGCGCG | -1.87 ± 0.14 | -1.74 ± 0.18 |
| UCUAAGCAAUAUUACGCGCU | -4.34 ± 0.46 | -1.6 ± 0.27 |
| UCUAAGCAAUAUUACGCGGG | -3.14 ± 0.2 | -1.41 ± 0.18 |
| UCUAAGCAAUAUUACGCGGU | -3.76 ± 0.29 | -1.4 ± 0.2 |
| UCUAAGCAAUAUUACGCGUG | -1.43 ± 0.087 | -1.15 ± 0.11 |
| UCUAAGCAAUAUUACGGAAG | -4.81 ± 0.46 | -1.49 ± 0.17 |
| UCUAAGCAAUAUUACGGAGA | -1.6 ± 0.22 | -1.3 ± 0.18 |
| UCUAAGCAAUAUUACGGAGC | – | -1.68 ± 0.37 |
| UCUAAGCAAUAUUACGGCGC | -1.94 ± 0.34 | -1.43 ± 0.26 |
| UCUAAGCAAUAUUACGGCGG | -0.251 ± 0.076 | -0.431 ± 0.096 |
| UCUAAGCAAUAUUACGGCUA | -1.86 ± 0.27 | -3.14 ± 0.47 |
| UCUAAGCAAUAUUACGGGAG | -3.79 ± 0.16 | -2.5 ± 0.14 |
| UCUAAGCAAUAUUACGGGUU | -3.97 ± 0.17 | -2.93 ± 0.19 |
| UCUAAGCAAUAUUACGGUGG | -1.18 ± 0.082 | -0.0857 ± 0.13 |
| UCUAAGCAAUAUUACGGUUC | -3.4 ± 0.19 | -2.39 ± 0.2 |
| UCUAAGCAAUAUUACGGUUU | -3.21 ± 0.43 | -2.56 ± 0.31 |
| UCUAAGCAAUAUUACGUAAG | -0.798 ± 0.075 | -0.333 ± 0.1 |
| UCUAAGCAAUAUUACGUACU | -2.18 ± 0.17 | -1.86 ± 0.21 |
| UCUAAGCAAUAUUACGUGGA | -2.82 ± 0.19 | -3.51 ± 0.39 |
| UCUAAGCAAUAUUACGUUGU | -4.19 ± 0.24 | -1.86 ± 0.15 |
| UCUCAGCAAUAUUACGAAAU | – | -2.86 ± 0.32 |
| UCUCAGCAAUAUUACGAACU | -1.75 ± 0.17 | -1.34 ± 0.21 |

Reference: the supplement of paper PMC7877785
